From US20170007714A1 (ONCOMATRYX BIOPHARMA S L, published 2017) come the findings set out here.

Assay [1] has as its target T1, human Endoglin on HT1080 cells (human, UniProt P17813 26-658).
T1 construct: also called ENG-positive HT1080
T1 sequence: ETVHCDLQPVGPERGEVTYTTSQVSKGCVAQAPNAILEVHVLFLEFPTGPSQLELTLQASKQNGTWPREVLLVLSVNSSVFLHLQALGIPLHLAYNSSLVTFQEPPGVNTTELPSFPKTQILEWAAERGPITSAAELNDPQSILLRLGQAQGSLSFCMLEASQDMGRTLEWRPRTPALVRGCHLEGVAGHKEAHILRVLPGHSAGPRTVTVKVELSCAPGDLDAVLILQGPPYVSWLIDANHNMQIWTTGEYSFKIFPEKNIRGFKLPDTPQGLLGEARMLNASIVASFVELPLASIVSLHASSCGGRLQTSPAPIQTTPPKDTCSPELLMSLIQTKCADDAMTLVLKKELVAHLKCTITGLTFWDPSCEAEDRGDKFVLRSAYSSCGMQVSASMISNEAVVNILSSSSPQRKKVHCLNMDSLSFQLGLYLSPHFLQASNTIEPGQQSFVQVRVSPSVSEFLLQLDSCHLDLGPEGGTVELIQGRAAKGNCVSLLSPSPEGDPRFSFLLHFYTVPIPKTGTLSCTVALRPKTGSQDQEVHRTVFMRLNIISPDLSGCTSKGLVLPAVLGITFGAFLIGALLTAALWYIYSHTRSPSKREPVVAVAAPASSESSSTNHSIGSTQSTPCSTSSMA
Briefly: flow cytometry on ENG-positive HT1080 cells.
Method: (§1) Cell binding was analyzed by flow cytometry, using ENG-positive HT1080 and ENG expressing mouse eEnd2.

Assay [2] has as its target T2, recombinant human Endoglin (human, UniProt P17813 26-586).
T2 construct: It states only that the extracellular domain is residues 26-561; also called rhENG; recombinant human ENG
T2 sequence: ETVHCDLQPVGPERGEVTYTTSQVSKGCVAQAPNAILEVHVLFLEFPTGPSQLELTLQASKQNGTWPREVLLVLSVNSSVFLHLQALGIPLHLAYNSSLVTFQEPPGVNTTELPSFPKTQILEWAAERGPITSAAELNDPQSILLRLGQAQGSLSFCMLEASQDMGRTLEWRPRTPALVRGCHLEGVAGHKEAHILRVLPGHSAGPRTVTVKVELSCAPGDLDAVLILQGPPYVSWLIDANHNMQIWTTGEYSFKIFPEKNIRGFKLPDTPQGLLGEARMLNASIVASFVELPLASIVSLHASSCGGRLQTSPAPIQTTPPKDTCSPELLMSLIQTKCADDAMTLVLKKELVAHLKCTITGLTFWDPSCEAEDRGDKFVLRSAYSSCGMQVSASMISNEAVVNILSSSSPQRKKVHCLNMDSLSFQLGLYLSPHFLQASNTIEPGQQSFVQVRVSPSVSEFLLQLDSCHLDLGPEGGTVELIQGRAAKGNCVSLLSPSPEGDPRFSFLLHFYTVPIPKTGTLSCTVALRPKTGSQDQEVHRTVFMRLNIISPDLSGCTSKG
Briefly: QCM (Attana A100) on rhENG; first of two constants.

Assay [3] has as its target T2, recombinant human Endoglin. As to the kind of experiment: QCM (Attana A100) on rhENG; second of two constants (avidity contribution noted).
The target in another assay is T3, BSA (UniProt P02769 25-607).
T3 construct: also called coated BSA; negative control (BSA)
T3 sequence (P02769 25-607 limits assumed): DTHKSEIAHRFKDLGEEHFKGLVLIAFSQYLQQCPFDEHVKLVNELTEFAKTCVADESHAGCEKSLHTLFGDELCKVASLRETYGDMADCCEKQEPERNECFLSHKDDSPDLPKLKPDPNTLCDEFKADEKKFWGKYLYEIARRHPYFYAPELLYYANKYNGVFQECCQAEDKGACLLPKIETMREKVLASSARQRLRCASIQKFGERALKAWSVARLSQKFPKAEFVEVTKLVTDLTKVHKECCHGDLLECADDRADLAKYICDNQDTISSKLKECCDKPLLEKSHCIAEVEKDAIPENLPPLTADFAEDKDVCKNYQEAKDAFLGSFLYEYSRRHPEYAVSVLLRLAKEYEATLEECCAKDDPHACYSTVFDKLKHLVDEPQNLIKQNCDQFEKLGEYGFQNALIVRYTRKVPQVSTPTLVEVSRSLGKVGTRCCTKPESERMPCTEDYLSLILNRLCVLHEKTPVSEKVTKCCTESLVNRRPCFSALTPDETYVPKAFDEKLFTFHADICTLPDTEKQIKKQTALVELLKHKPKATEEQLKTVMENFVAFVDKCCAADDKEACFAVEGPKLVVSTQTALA
As to the kind of experiment: ELISA, coated BSA as negative control. A general note: ELISA stands for enzyme-linked immunosorbent assay.

The target in assay [4] is T4, mouse Endoglin on eEnd2 cells (mouse, UniProt Q63961 27-653).
T4 construct: also called ENG expressing mouse eEnd2
T4 sequence: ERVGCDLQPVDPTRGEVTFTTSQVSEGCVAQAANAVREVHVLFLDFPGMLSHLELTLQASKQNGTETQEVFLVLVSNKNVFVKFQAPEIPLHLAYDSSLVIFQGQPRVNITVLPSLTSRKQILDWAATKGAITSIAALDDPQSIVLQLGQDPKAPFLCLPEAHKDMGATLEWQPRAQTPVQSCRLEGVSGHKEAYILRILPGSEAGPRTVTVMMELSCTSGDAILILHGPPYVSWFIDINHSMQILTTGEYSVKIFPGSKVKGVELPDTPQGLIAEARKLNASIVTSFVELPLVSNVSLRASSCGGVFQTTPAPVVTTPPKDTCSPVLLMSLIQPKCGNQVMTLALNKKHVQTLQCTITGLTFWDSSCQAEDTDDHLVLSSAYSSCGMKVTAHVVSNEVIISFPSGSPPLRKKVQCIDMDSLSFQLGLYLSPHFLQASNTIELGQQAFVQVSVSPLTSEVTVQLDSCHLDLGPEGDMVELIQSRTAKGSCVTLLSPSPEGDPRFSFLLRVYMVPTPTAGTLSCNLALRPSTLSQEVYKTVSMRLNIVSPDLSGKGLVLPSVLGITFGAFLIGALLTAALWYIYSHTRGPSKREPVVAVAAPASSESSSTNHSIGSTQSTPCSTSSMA
As to the kind of experiment: flow cytometry on ENG-expressing mouse eEnd2 cells.
Method: as §1

Assay [5] addresses T5, recombinant mouse ENG (aa 27-581) (mouse, UniProt Q63961 27-581).
T5 construct: also called rmENG; recombinant mouse Endoglin
T5 sequence: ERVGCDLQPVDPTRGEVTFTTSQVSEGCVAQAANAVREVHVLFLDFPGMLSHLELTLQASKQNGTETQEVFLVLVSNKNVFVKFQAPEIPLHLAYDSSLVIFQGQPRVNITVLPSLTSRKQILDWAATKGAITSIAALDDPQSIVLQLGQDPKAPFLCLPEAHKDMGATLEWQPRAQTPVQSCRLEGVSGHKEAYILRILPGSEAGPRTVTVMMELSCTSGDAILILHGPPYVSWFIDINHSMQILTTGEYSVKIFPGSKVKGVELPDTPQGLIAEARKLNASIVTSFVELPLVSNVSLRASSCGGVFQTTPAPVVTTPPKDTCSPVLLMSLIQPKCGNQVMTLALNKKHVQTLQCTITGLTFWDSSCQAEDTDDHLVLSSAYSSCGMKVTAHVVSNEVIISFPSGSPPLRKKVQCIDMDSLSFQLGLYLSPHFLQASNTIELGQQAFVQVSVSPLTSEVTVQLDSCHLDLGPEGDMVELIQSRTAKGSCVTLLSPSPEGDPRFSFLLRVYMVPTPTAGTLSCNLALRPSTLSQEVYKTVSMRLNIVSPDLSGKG
As to the kind of experiment: ELISA on recombinant mouse ENG, detection with HRP-conjugated anti-human IgG.

B1: anti-human Endoglin A5-IgG1 (antibody, V domains shown)
VH: EVQLLESGGGLVQPGGSLRLSCAASGFTFSSYAMSWVRQAPGKGLEWVSAIYGSDGDTTYADSVKGRFTISRDNSKNTLYLQMNSLRAEDTAVYYCARVFYTAGFDYWGQGTLVTVSS
VL: DIELTQSPSSLSASVGDRVTITCRASQSISSSLNWYQQKPGKAPKLLIYAASSLQSGVPSRFSGSGSGTDFTLTISSLQPEDFATYYCQQAPAKPPTFGQGTKLEIKR
notes: Full-length human IgG1 (gamma1*/kappa, deficient for ADCC and CDC), made from the scFv A5 and produced in CHO cells; also called anti-huENG A5; A5 anti-huENG IgG1
In the case of B1, the EC50 (as a rule, the concentration needed to bring the measured effect to its halfway point) in assay [1] turned out to be 0.4 nM. Moreover, the Kd came out at 260 nM in assay [2] and 2.5 nM in assay [3].

B2: anti-murine Endoglin mE12-IgG1 (antibody, V domains shown)
VH: EVQLVESGGGVVQPGRSLRLSCAASGFTFSSYGMHWVRQAPGKGLVWVSRINSDGSSTSYADSVKGRFTISRDNSKNTLYLQMNSLRAEDTAVYYCARATGTWVMSWGQGTLVTVSS
VL: SSELIQDPAVSVALGQTVRITCQGDSLRSYYASWYQQKPGQAPVLVIYGKNNRPSGIPDRFSGSSSGNTASLTITGAQAEDEADYYCNSRDSSGTVFGGGTKLTVLG
notes: Full-length human IgG1 (gamma1*/lambda, deficient for ADCC and CDC), made from the scFv mE12 and produced in CHO cells; also called anti-muENG mE12; OCMTX004p
As for B2, in the assay with BSA, the binding result was “no binding”. For the same molecule, the EC50 in assay [4] worked out at 89 nM; in assay [5] it was 60 nM.
